Measured values: US8840891 (RSR, dated 2014)

Experiments:
Assay in all cases: cell-based or functional assay
[1] = target: TSHR with Glu61 mutated to Alanine expressed on CHO cells (human) (UniProt P16473)
[2] = target: wild type human TSHR (thyrotropin receptor) expressed on CHO cells (human) (UniProt P16473)
[3] = target: human TSHR, wild type, expressed on CHO cells (human) (UniProt P16473)
[4] = target: human TSHR with activating mutation A623I, on CHO cells (human) (UniProt P16473)

Cyclic AMP produced; 5C9 0.01 µg/mL + TSH (fmol/cell well) [1]: 18000
Cyclic AMP produced; 5C9 0.1 µg/mL + TSH (fmol/cell well) [1]: 2110
Cyclic AMP produced; 5C9 1.0 µg/mL + TSH (fmol/cell well) [1]: 766
Cyclic AMP produced; 5C9 10 µg/mL + TSH (fmol/cell well) [1]: 346
Cyclic AMP produced; 5C9 100 µg/mL + TSH (fmol/cell well) [1]: 328
Cyclic AMP produced; 5C9 100 µg/mL only (fmol/cell well) [1]: 254
Mutated/wild type (%); 5C9 0.01 µg/mL + TSH [1]: 131%
Mutated/wild type (%); 5C9 0.1 µg/mL + TSH [1]: 73%
Mutated/wild type (%); 5C9 1.0 µg/mL + TSH [1]: 143%
Mutated/wild type (%); 5C9 10 µg/mL + TSH [1]: 136%
Mutated/wild type (%); 5C9 100 µg/mL + TSH [1]: 162%
Mutated/wild type (%); 5C9 100 µg/mL only [1]: 117%
Cyclic AMP produced; 5C9 0.01 µg/mL + TSH (fmol/cell well) [2]: 13800
Cyclic AMP produced; 5C9 0.1 µg/mL + TSH (fmol/cell well) [2]: 2890
Cyclic AMP produced; 5C9 1.0 µg/mL + TSH (fmol/cell well) [2]: 536
Cyclic AMP produced; 5C9 10 µg/mL + TSH (fmol/cell well) [2]: 254
Cyclic AMP produced; 5C9 100 µg/mL + TSH (fmol/cell well) [2]: 202
Cyclic AMP produced; 5C9 100 µg/mL only (fmol/cell well) [2]: 218
% inhibition of basal cyclic AMP production; Exp 2; 5C9 IgG 0.001 µg/mL [3]: 10.8%
% inhibition of basal cyclic AMP production; Exp 2; 5C9 IgG 0.01 µg/mL [3]: 37.2%
% inhibition of basal cyclic AMP production; Exp 2; 5C9 IgG 0.1 µg/mL [3]: 45.7%
% inhibition of basal cyclic AMP production; Exp 2; 5C9 IgG 1 µg/mL [3]: 71%
% inhibition of basal cyclic AMP production; Exp 2; 5C9 IgG 10 µg/mL [3]: 74.6%
% inhibition of basal cyclic AMP production; Exp 2; 5C9 IgG 100 µg/mL [3]: 54.9%
% inhibition of basal cyclic AMP production; Exp 3; 5C9 IgG 0.1 µg/mL [3]: 1%
% inhibition of basal cyclic AMP production; Exp 3; 5C9 IgG 1 µg/mL [3]: 61%
% inhibition of basal cyclic AMP production; Exp 3; 5C9 IgG 10 µg/mL [3]: 59%
% inhibition of basal cyclic AMP production; Exp 3; 5C9 IgG 100 µg/mL [3]: 56%
cyclic AMP; Exp 1; 5C9 1 µg/mL + TSH 3 ng/mL [3]: 13.9 pmol/mL
cyclic AMP; Exp 1; 5C9 10 µg/mL + TSH 3 ng/mL [3]: 3.7 pmol/mL
cyclic AMP; Exp 1; 5C9 10 µg/mL only [3]: 0.45 pmol/mL
cyclic AMP; Exp 1; native human TSH 100 ng/mL + 5C9 IgG 0.001 µg/mL [3]: 36 pmol/mL
cyclic AMP; Exp 1; native human TSH 100 ng/mL + 5C9 IgG 0.01 µg/mL [3]: 18 pmol/mL
cyclic AMP; Exp 1; native human TSH 100 ng/mL + 5C9 IgG 0.1 µg/mL [3]: 0.2 pmol/mL
cyclic AMP; Exp 1; native human TSH 100 ng/mL + 5C9 IgG 1.0 µg/mL [3]: 0.14 pmol/mL
cyclic AMP; Exp 1; native human TSH 100 ng/mL + 5C9 IgG 10 µg/mL [3]: 0.11 pmol/mL
cyclic AMP; Exp 1; native human TSH 100 ng/mL + 5C9 IgG 100 µg/mL [3]: 0.16 pmol/mL
cyclic AMP; Exp 1; recombinant human TSH 100 ng/mL + 5C9 IgG 0.001 µg/mL [3]: 13.6 pmol/mL
cyclic AMP; Exp 1; recombinant human TSH 100 ng/mL + 5C9 IgG 0.01 µg/mL [3]: 8.13 pmol/mL
cyclic AMP; Exp 1; recombinant human TSH 100 ng/mL + 5C9 IgG 0.1 µg/mL [3]: 0.12 pmol/mL
cyclic AMP; Exp 1; recombinant human TSH 100 ng/mL + 5C9 IgG 1.0 µg/mL [3]: 0.1 pmol/mL
cyclic AMP; Exp 1; recombinant human TSH 100 ng/mL + 5C9 IgG 10 µg/mL [3]: 0.12 pmol/mL
cyclic AMP; Exp 1; recombinant human TSH 100 ng/mL + 5C9 IgG 100 µg/mL [3]: 0.19 pmol/mL
cyclic AMP; Exp 2; 5C9 1 µg/mL + TSH 3 ng/mL [3]: 6.1 pmol/mL
cyclic AMP; Exp 2; 5C9 10 µg/mL + TSH 3 ng/mL [3]: 3.1 pmol/mL
cyclic AMP; Exp 2; 5C9 10 µg/mL only [3]: 0.4 pmol/mL
cyclic AMP; Exp 2; native human TSH 100 ng/mL + 5C9 IgG 0.001 µg/mL [3]: 37.6 pmol/mL
cyclic AMP; Exp 2; native human TSH 100 ng/mL + 5C9 IgG 0.01 µg/mL [3]: 34.4 pmol/mL
cyclic AMP; Exp 2; native human TSH 100 ng/mL + 5C9 IgG 0.1 µg/mL [3]: 15.8 pmol/mL
cyclic AMP; Exp 2; native human TSH 100 ng/mL + 5C9 IgG 1.0 µg/mL [3]: 0.13 pmol/mL
cyclic AMP; Exp 2; native human TSH 100 ng/mL + 5C9 IgG 10 µg/mL [3]: 0.18 pmol/mL
cyclic AMP; Exp 2; native human TSH 100 ng/mL + 5C9 IgG 100 µg/mL [3]: 0.21 pmol/mL
cyclic AMP; Exp 2; native porcine TSH 0.3 ng/mL + 5C9 IgG 0.001 µg/mL [3]: 32.7 pmol/mL
cyclic AMP; Exp 2; native porcine TSH 0.3 ng/mL + 5C9 IgG 0.01 µg/mL [3]: 28.2 pmol/mL
cyclic AMP; Exp 2; native porcine TSH 0.3 ng/mL + 5C9 IgG 0.1 µg/mL [3]: 18 pmol/mL
cyclic AMP; Exp 2; native porcine TSH 0.3 ng/mL + 5C9 IgG 1.0 µg/mL [3]: 2.14 pmol/mL
cyclic AMP; Exp 2; native porcine TSH 0.3 ng/mL + 5C9 IgG 10 µg/mL [3]: 0.2 pmol/mL
cyclic AMP; Exp 2; native porcine TSH 0.3 ng/mL + 5C9 IgG 100 µg/mL [3]: 0.18 pmol/mL
cyclic AMP; Exp 2; recombinant human TSH 100 ng/mL + 5C9 IgG 0.001 µg/mL [3]: 20 pmol/mL
cyclic AMP; Exp 2; recombinant human TSH 100 ng/mL + 5C9 IgG 0.01 µg/mL [3]: 20.6 pmol/mL
cyclic AMP; Exp 2; recombinant human TSH 100 ng/mL + 5C9 IgG 0.1 µg/mL [3]: 7.39 pmol/mL
cyclic AMP; Exp 2; recombinant human TSH 100 ng/mL + 5C9 IgG 1.0 µg/mL [3]: 0.07 pmol/mL
cyclic AMP; Exp 2; recombinant human TSH 100 ng/mL + 5C9 IgG 10 µg/mL [3]: 0.07 pmol/mL
cyclic AMP; Exp 2; recombinant human TSH 100 ng/mL + 5C9 IgG 100 µg/mL [3]: 0.11 pmol/mL
cyclic AMP; Exp 3; 5C9 0.01 µg/mL + TSH 3 ng/mL [3]: 33.9 pmol/mL
cyclic AMP; Exp 3; 5C9 0.1 µg/mL + TSH 3 ng/mL [3]: 18.7 pmol/mL
cyclic AMP; Exp 3; 5C9 1 µg/mL + TSH 3 ng/mL [3]: 5.4 pmol/mL
cyclic AMP; Exp 3; 5C9 10 µg/mL + TSH 3 ng/mL [3]: 1.9 pmol/mL
cyclic AMP; Exp 3; 5C9 100 µg/mL + TSH 3 ng/mL [3]: 1.4 pmol/mL
cyclic AMP; Exp 3; 5C9 100 µg/mL only [3]: 0.5 pmol/mL
cyclic AMP; Exp 3; native human TSH 100 ng/mL + 5C9 IgG 0.001 µg/mL [3]: 36 pmol/mL
cyclic AMP; Exp 3; native human TSH 100 ng/mL + 5C9 IgG 0.01 µg/mL [3]: 28.4 pmol/mL
cyclic AMP; Exp 3; native human TSH 100 ng/mL + 5C9 IgG 0.1 µg/mL [3]: 7.22 pmol/mL
cyclic AMP; Exp 3; native human TSH 100 ng/mL + 5C9 IgG 1.0 µg/mL [3]: 0.67 pmol/mL
cyclic AMP; Exp 3; native human TSH 100 ng/mL + 5C9 IgG 10 µg/mL [3]: 0.8 pmol/mL
cyclic AMP; Exp 3; native human TSH 100 ng/mL + 5C9 IgG 100 µg/mL [3]: 1.35 pmol/mL
cyclic AMP; Exp 3; native porcine TSH 0.3 ng/mL + 5C9 IgG 0.001 µg/mL [3]: 38.2 pmol/mL
cyclic AMP; Exp 3; native porcine TSH 0.3 ng/mL + 5C9 IgG 0.01 µg/mL [3]: 26.6 pmol/mL
cyclic AMP; Exp 3; native porcine TSH 0.3 ng/mL + 5C9 IgG 0.1 µg/mL [3]: 10.1 pmol/mL
cyclic AMP; Exp 3; native porcine TSH 0.3 ng/mL + 5C9 IgG 1.0 µg/mL [3]: 2.28 pmol/mL
cyclic AMP; Exp 3; native porcine TSH 0.3 ng/mL + 5C9 IgG 10 µg/mL [3]: 0.68 pmol/mL
cyclic AMP; Exp 3; native porcine TSH 0.3 ng/mL + 5C9 IgG 100 µg/mL [3]: 1.03 pmol/mL
cyclic AMP; Exp 3; recombinant human TSH 100 ng/mL + 5C9 IgG 0.001 µg/mL [3]: 25.6 pmol/mL
cyclic AMP; Exp 3; recombinant human TSH 100 ng/mL + 5C9 IgG 0.01 µg/mL [3]: 22.9 pmol/mL
cyclic AMP; Exp 3; recombinant human TSH 100 ng/mL + 5C9 IgG 0.1 µg/mL [3]: 1.18 pmol/mL
cyclic AMP; Exp 3; recombinant human TSH 100 ng/mL + 5C9 IgG 1.0 µg/mL [3]: 0.81 pmol/mL
cyclic AMP; Exp 3; recombinant human TSH 100 ng/mL + 5C9 IgG 10 µg/mL [3]: 0.74 pmol/mL
cyclic AMP; Exp 3; recombinant human TSH 100 ng/mL + 5C9 IgG 100 µg/mL [3]: 0.88 pmol/mL
cyclic AMP; Exp 4; 5C9 0.1 µg/mL + TSH 0.3 ng/mL [3]: 6.2 pmol/mL
cyclic AMP; Exp 4; 5C9 1 µg/mL + TSH 0.3 ng/mL [3]: 1.65 pmol/mL
cyclic AMP; Exp 4; 5C9 10 µg/mL + TSH 0.3 ng/mL [3]: 0.23 pmol/mL
cyclic AMP; Exp 4; 5C9 100 µg/mL + TSH 0.3 ng/mL [3]: 0.29 pmol/mL
cyclic AMP; Exp 4; 5C9 100 µg/mL only [3]: 0.15 pmol/mL
cyclic AMP; Exp 5; 5C9 0.1 µg/mL + TSH 0.3 ng/mL [3]: 12.4 pmol/mL
cyclic AMP; Exp 5; 5C9 1 µg/mL + TSH 0.3 ng/mL [3]: 2.57 pmol/mL
cyclic AMP; Exp 5; 5C9 5 µg/mL + TSH 0.3 ng/mL [3]: 1.21 pmol/mL
cyclic AMP; Exp 5; 5C9 10 µg/mL + TSH 0.3 ng/mL [3]: 1.17 pmol/mL
cyclic AMP; Exp 5; 5C9 10 µg/mL only [3]: 0.38 pmol/mL
cyclic AMP; TSMAb 1 1 µg/mL + 5C9 IgG 100 µg/mL [3]: 1.24 pmol/mL
cyclic AMP; TSMAb 2 1 µg/mL + 5C9 IgG 100 µg/mL [3]: 2.26 pmol/mL
cyclic AMP; TSMAb 4 10 ng/mL + 5C9 IgG 100 µg/mL [3]: 2.2 pmol/mL
cyclic AMP; TSMAb 5 100 ng/mL + 5C9 IgG 100 µg/mL [3]: 0.85 pmol/mL
cyclic AMP; TSMAb 7 100 ng/mL + 5C9 IgG 100 µg/mL [3]: 1.26 pmol/mL
basal cyclic AMP (buffer only 36.89); 5C9 IgG 0.001 µg/mL [4]: 26.5 pmol/mL
basal cyclic AMP (buffer only 36.89); 5C9 IgG 0.01 µg/mL [4]: 27 pmol/mL
basal cyclic AMP (buffer only 36.89); 5C9 IgG 0.1 µg/mL [4]: 19.8 pmol/mL
basal cyclic AMP (buffer only 36.89); 5C9 IgG 1 µg/mL [4]: 16.4 pmol/mL
B1: 5C9 IgG (human monoclonal autoantibody to the TSHR) (antibody, from another filing, V domains shown)
VH: EVQLVESGGGLIQPGGSLRLSCAASGFTVSSNYMSWVRQAPGKGLEWVSVTYSGGSTSYADSVKGRFTISRDNSKNTLYLQMNSLRAEDTAVYYCARGGRYCSSISCYARSGCDYWGQGTLVTVSS
VL: AIQMTQSPSSLSASVGDRVTITCRASQSISNYLNWYQQKPGKAPKLLIYAASSLQSGVPSRFSGSGSGTDFTLTISSLQPEDFATYYCQQSYSSPSTTFGQGTKLEIK
